Data from patent US20160251440A1 (Ablynx, published 2016).

Columns and labels:
[1] = molecular target: T1, human IL12Rβ1, cell-expressed (human, UniProt P42701 24-662); assay: cell-based or functional assay
[2] = molecular target: T2, human IL12Rβ1 extracellular domain Fc-fusion (human, UniProt P42701 24-545); assay: competition ELISA, coated IL-23 + 2 nM IL12Rβ1-Fc
T2 construct: extracellular domain; bought; also called IL12Rβ1-Fc; hIL-12Rβ1-Fc; not shown: Fc part, captured by anti-hIgG

[3] = molecular target: T2, human IL12Rβ1 extracellular domain …; assay: competition ELISA, coated IL-23 + IL12Rβ1-Fc
[4] = molecular target: T2, human IL12Rβ1 extracellular domain …; assay: competition ELISA, coated IL-12 + 2 nM IL12Rβ1-Fc
[5] = molecular target: T1, human IL12Rβ1, cell-expressed; assay: cell-based or functional assay; remark: listed apart in the source
[6] = molecular target: T2, human IL12Rβ1 extracellular domain …; assay: competition ELISA, coated IL-12 + IL12Rβ1-Fc
[7] = molecular target: T2, human IL12Rβ1 extracellular domain …; assay: SPR Biacore T100, captured IL12Rβ1-Fc
[8] = molecular target: T3, human CD4, cell-expressed (human, UniProt P01730 26-458); assay: flow cytometry on MOLM-13 cells (CD4, no IL12R or IL23R), lower left panel
T3 construct: whole, on cells

[9] = molecular target: T4, CXCR4 and IL-3Rα (CD123) co-expressed on MOLM-13 / THP-1 cells (human, UniProt P61073 1-352; P26951 19-378); assay: flow cytometry on MOLM-13 cells (IL-3Ra higher than CXCR4)
T4 construct: whole, on cells; two separate membrane proteins on one cell, not a complex; target of bispecifics on double-positive cells; also called CXCR4+/CD123+ cells
T4 sequence (P61073 whole entry, one chain of several): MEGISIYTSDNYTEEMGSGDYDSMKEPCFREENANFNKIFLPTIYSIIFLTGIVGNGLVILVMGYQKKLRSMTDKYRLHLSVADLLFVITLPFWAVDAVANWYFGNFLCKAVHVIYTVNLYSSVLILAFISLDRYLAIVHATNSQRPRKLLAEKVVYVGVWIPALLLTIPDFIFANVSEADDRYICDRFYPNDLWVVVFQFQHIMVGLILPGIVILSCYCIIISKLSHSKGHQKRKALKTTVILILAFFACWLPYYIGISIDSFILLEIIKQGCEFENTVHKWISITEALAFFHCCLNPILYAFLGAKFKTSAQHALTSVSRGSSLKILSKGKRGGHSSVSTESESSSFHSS

[10] = molecular target: T5, recombinant IL-3Rα ectodomain (human, UniProt P26951 19-305); assay: ELISA on recombinant IL-3Ra ectodomain (panel 'IL-3Ra ELISA', lower left)
T5 construct: extracellular domain; also called recombinant IL-3Ra; biotinylated-IL-3Rα ectodomain
T5 sequence (looked up): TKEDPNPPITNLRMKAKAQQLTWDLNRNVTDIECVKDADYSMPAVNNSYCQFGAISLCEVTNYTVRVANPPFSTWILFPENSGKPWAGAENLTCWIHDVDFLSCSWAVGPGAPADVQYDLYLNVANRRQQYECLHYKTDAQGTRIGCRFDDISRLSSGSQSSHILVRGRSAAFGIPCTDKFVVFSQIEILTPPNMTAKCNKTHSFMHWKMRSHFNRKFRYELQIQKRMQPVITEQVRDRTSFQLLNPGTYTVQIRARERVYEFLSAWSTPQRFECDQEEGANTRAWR

[11] = molecular target: T5, recombinant IL-3Rα ectodomain; assay: ELISA on recombinant IL-3Ra ectodomain (both lower panels)
[12] = molecular target: T6, human CXCR4 (on cells, viral lipoparticles or membrane extracts) (human, UniProt P61073 1-352); assay: cell-based or functional assay
T6 sequence (P61073 whole entry): as the sequence (P61073 whole entry, one chain of several) above

[13] = molecular target: T6, human CXCR4 (on cells, viral …); assay: FACS, Jurkat cells
[14] = molecular target: T6, human CXCR4 (on cells, viral …); assay: cell-based or functional assay; remark: listed apart in the source
[15] = molecular target: T6, human CXCR4 (on cells, viral …); assay: ELISA, CXCR4 viral lipoparticles
[16] = molecular target: T6, human CXCR4 (on cells, viral …); assay: FACS displacement of 30 nM biotin-SDF-1, Caki-CXCR4 cells
[17] = molecular target: T6, human CXCR4 (on cells, viral …); assay: FACS, Caki-CXCR4 cells
[18] = molecular target: T7, human IL12Rβ2, cell-expressed (human, UniProt Q99665 24-862); assay: FACS, activated human T cells
T7 construct: whole, on cells; in the context of the heterodimeric receptor; also called IL12Rb2
T7 sequence (looked up): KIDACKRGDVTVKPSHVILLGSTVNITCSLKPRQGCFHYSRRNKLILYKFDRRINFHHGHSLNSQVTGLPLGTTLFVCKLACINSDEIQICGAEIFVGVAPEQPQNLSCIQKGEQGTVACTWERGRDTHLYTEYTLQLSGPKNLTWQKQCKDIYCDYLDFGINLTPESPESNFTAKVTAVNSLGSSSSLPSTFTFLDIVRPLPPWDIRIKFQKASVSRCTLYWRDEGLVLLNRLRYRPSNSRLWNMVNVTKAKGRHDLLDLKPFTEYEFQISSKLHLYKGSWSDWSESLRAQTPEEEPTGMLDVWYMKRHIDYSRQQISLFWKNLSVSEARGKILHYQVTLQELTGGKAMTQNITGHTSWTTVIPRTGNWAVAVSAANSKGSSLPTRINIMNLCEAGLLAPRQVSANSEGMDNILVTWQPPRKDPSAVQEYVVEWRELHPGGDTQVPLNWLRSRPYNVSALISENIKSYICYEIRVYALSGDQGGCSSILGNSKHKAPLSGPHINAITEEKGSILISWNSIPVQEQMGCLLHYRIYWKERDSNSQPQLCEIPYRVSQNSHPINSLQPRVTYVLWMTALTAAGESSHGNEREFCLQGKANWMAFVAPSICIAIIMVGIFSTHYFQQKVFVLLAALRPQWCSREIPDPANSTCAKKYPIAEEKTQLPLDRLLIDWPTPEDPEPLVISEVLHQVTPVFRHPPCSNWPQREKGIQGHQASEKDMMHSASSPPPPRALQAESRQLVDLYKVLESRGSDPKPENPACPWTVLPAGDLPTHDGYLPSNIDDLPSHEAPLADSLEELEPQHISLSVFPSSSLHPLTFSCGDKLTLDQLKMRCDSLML

[19] = molecular target: T8, human IL12Rβ2 extracellular domain Fc-fusion (human, UniProt Q99665 24-622); assay: competition ELISA, coated IL-12 + IL12Rβ2-Fc
T8 construct: extracellular domain; bought; also called IL12Rβ2-Fc; hIL-12Rβ2-Fc
T8 sequence (looked up): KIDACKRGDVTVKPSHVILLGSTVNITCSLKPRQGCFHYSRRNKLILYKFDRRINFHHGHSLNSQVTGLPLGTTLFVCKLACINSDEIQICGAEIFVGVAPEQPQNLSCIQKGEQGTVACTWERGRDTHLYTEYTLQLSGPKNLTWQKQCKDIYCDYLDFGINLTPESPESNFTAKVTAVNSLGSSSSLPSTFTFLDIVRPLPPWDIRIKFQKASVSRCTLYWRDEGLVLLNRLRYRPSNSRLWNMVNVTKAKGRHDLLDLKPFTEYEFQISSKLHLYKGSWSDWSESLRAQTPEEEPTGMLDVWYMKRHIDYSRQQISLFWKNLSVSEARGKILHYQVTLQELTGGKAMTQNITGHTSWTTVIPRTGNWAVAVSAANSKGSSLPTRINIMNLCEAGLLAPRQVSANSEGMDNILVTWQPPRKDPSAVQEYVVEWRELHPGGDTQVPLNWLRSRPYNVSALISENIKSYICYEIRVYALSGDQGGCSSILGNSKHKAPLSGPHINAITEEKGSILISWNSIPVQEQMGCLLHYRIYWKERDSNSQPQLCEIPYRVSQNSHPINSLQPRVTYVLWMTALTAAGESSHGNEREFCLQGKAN

[20] = molecular target: T7, human IL12Rβ2, cell-expressed; assay: cell-based or functional assay
[21] = molecular target: T1, human IL12Rβ1, cell-expressed; assay: flow cytometry on isolated CD8+ T cells of donor D863, anti-Flag detection
[22] = molecular target: T3, human CD4, cell-expressed; assay: flow cytometry on MOLM-13 cells (CD4, no IL12R or IL23R), upper left panel
[23] = molecular target: T8, human IL12Rβ2 extracellular domain …; assay: SPR Biacore T100, captured IL12Rβ2-Fc
[24] = molecular target: T8, human IL12Rβ2 extracellular domain …; assay: competition ELISA, coated IL-12 + 3 nM IL12Rβ2-Fc

B1: IL12Rb1#31: 148F09 (VHH)
VHH: EVQLVESGGGLVQTGGSLRLSCAASGRTPSIIAMGWFRQTPGKEREFVGEIILSKGFTYYADSVKGRFTISRANAKNTITMYLQMNSLKSEDTAVYYCAARQNWSGNPTRTNEYEYWGQGTLVTVSS
notes: also called IL12Rβ1#31; LG148F09
For B1, the “IC50, IFNγ release, PBMC D840” value [1] was 93.5 nM, the IC50 [2] was 10 nM and the IC50 [3] was 10 nM. The IC50 [4] was 22 nM, the “IC50, IL-17 release, PBMC D840” value [5] was 210 nM and the IC50 [6] was 22 nM. The Kd [7] was 23 nM, the koff [7] was 0.017 s⁻¹ and the kon [7] was 720000 M⁻¹ s⁻¹. B1: no binding (tested: 1E-6 M) [8].

B2: 55A01-35GS-281F12 (bispecific antibody)
chain: EVQLVESGGGSVQAGGSLRLSCTTSGRALNMYVMGWFRQAPGNEREFVAATSSSGGSTSYPDSVKGRFTISRDNAKNTVYLQMNSLKPEDTAAYRCAASPYVSTPTMNILEEYRYWGQGTLVTVSSGGGGSGGGGSGGGGSGGGGSGGGGSGGGGSGGGGSEVQLVESGGGLVQAGDSLRLSCAASGRAFSRYAMGWFRQAPGKEREFVAAIGWGPSKTNYADSVKGRFTISRDNAKNTVYLQMNTLKPEDTAVYSCAAKFVNTDSTWSRSEMYTYWGQGTLVTVSS
notes: also called CD123#2-CXCR4#2; 55A01-281F12
B2 was tested, and the “EC50 (read off the curve)” value [9] was about 10 nM and the “EC50 (read off the curve)” value [10] was about 1 nM.

B3: 14D09 (VHH)
VHH: EVQLVESGGGLVQAGGSLRLSCVASGISSSKRNMGWYRQAPGKQRESVATISSGGNKDYTDAVKDRFTISRDTTKNTVYLQMNSLKPEDTAVYYCKIEAGTGWATRRGYTYWGQGTLVTVSS
notes: also called CXCR4#1; 14D9
B3 was tested, and the binding result [11] was “no binding (tested: 1E-6 M)”, the “IC50, SDF-1 chemotaxis, Jurkat” value [12] was 11 nM and the EC50 [13] was 11 nM. For the same binder, the “IC50, CXCL-12 chemotaxis, Jurkat E6-1” value [14] was 10.4 nM, the “IC50, CXCL-12 chemotaxis, MOLM-13” value [14] was 8.62 nM and the EC50 [15] was 7.28 nM. It also gave an IC50 [16] of 18.4 nM and an EC50 [17] of 9.9 nM.

B4: 14A02 (VHH)
VHH: EVQLVESGGGLVQAGGSLRLSCVASGISSSIRNMGWYRQAPGKQRESVATISSGGNKDYTDAVKDRFTISRDTTKNTVYLQMSSLKPEDTAVYYCKIEAGTGWATRRGYTYWGQGTQVTVSS
In the case of B4, the “IC50, SDF-1 chemotaxis, Jurkat” value [12] is reported as 0.95 nM, the EC50 [13] is reported as 1.15 nM and the EC50 [15] is reported as 0.73 nM. The IC50 [16] was 4.1 nM and the EC50 [17] was 4 nM.

B5: 14E02 (VHH)
VHH: EVQLVESGGGLVQAGGSLRLSCVASGISSSIRNMGWYRQAPGKQRESVATISSGGNKDYTDAVKDRFTISRDTTKNTVYLQMNSLKPEDTAVYYCKIEAGTGWATRRGYTYWGQGTQVTVSS
notes: also called 14E2
B5 gave an EC50 [15] of 0.78 nM, an IC50 [16] of 13.5 nM and an EC50 [17] of 2.6 nM.

B6: IL12Rb2#1: 135B08 (VHH)
VHH: EVQLVESGGRLVQAGDSLRLSCAASGRTFISYRMGWFRQAPGKEREFVAALRWSSSNIDYTYYADSVKGRFSISGDYAKNTVYLQMNSLKAEDTAVYYCAASTRWGVMESDTEYTSWGQGTLVTVSS
notes: also called IL12Rβ2#1; LG135B08
In the case of B6, the EC50 [18] is reported as 1.5 nM, the IC50 [19] is reported as 4.2 nM and the “IC50, IFNγ release, PBMC D840” value [20] is reported as 13.5 nM. The “IC50, IFNγ release, T cells D839” value [20] was 51 nM, the binding result [21] was “no binding (tested: 250 nM)” and the binding result [22] was “no binding (tested: 1E-6 M)”. The Kd [23] was 2.7 nM, the koff [23] was 0.00057 s⁻¹ and the kon [23] was 210000 M⁻¹ s⁻¹. It also gave an IC50 [24] of 4.2 nM.

B7: IL12Rb2#2: 135A07 (VHH)
VHH: EVQLVESGGRLVQAGDSLRLSCAASGRTFTSYRMGWFRQAPGKEREFVSALRWSSGNIDYTYYADSVKGRFSISGDYAKNTVYLQMNSLKAEDTAVYYCAASTRWGVMESDTEYTSWGQGTLVTVSS
notes: also called IL12Rβ2#2; LG135A07
B7 was tested, and the EC50 [18] was 1.8 nM, the IC50 [19] was 15 nM and the “IC50, IFNγ release, PBMC D840” value [20] was 40 nM. For the same binder, the “IC50, IFNγ release, T cells D839” value [20] was 67 nM, the binding result [22] was “no binding (tested: 1E-6 M)” and the Kd [23] was 6.9 nM. For the same binder, the koff [23] was 0.0018 s⁻¹, the kon [23] was 270000 M⁻¹ s⁻¹ and the IC50 [24] was 15 nM.
